In US20240294593A1 (Genentech, published 2024):

target: T1, human PD-1-His (human, UniProt Q15116 25-167, limits assumed); test: Octet [D00120 Figure 65H]
T1 construct: Antigen of the Octet assays; not shown: His tag
Description: In particular, anti-human IgG-Fc (AHC) biosensors were used to capture the test articles and dipped into multiple concentrations of PD-1.

T1 sequence (Q15116 25-167 limits assumed): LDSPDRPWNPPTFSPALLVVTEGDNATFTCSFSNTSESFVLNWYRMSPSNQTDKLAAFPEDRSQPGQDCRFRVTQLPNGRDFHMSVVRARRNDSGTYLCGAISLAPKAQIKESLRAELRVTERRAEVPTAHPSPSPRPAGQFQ

Binder	Kd [nM]	koff [s⁻¹]	kon [M⁻¹ s⁻¹]
H1_L1.87 (antibody, V domains shown, also called VL-E61H; Kabat 55) VH: EVQLVESGGGLVQPGGSLRLSCAASGFTFSSFGMHWVRQAPGKGLEWVSYISSGSSIIYYADSVKGRFTISRDNAKNSLYLQMNSLRAEDTAVYYCARGGRLVWSPDYWGQGTLVTVSS VL: DIVMTQSPDSLAVSLGERATINCKSSQSLLNSGNQKNYLTWYQQKPGQPPKLLIYWASTRHSGVPDRFTGSGSGTDFTLTISSLQAEDVAVYYCQNDYSYPFTFGSGTKLEIKR	50.9	0.00552	109000
H1_L1.88 (antibody, V domains shown, also called VL-E61A; Kabat 55) VH: EVQLVESGGGLVQPGGSLRLSCAASGFTFSSFGMHWVRQAPGKGLEWVSYISSGSSIIYYADSVKGRFTISRDNAKNSLYLQMNSLRAEDTAVYYCARGGRLVWSPDYWGQGTLVTVSS VL: DIVMTQSPDSLAVSLGERATINCKSSQSLLNSGNQKNYLTWYQQKPGQPPKLLIYWASTRASGVPDRFTGSGSGTDFTLTISSLQAEDVAVYYCQNDYSYPFTFGSGTKLEIKR	43.3	0.00411	95000
H1_L1.85 (antibody, V domains shown, also called VL-E61K; Kabat 55) VH: EVQLVESGGGLVQPGGSLRLSCAASGFTFSSFGMHWVRQAPGKGLEWVSYISSGSSIIYYADSVKGRFTISRDNAKNSLYLQMNSLRAEDTAVYYCARGGRLVWSPDYWGQGTLVTVSS VL: DIVMTQSPDSLAVSLGERATINCKSSQSLLNSGNQKNYLTWYQQKPGQPPKLLIYWASTRKSGVPDRFTGSGSGTDFTLTISSLQAEDVAVYYCQNDYSYPFTFGSGTKLEIKR	31.8	0.00316	99400
H1_L1.83 (antibody, V domains shown, also called VL-T59Y; Kabat 53) VH: EVQLVESGGGLVQPGGSLRLSCAASGFTFSSFGMHWVRQAPGKGLEWVSYISSGSSIIYYADSVKGRFTISRDNAKNSLYLQMNSLRAEDTAVYYCARGGRLVWSPDYWGQGTLVTVSS VL: DIVMTQSPDSLAVSLGERATINCKSSQSLLNSGNQKNYLTWYQQKPGQPPKLLIYWASYRESGVPDRFTGSGSGTDFTLTISSLQAEDVAVYYCQNDYSYPFTFGSGTKLEIKR	64.3	0.00603	93800
H1_L1.89 (antibody, V domains shown, also called VL-E61G; Kabat 55) VH: EVQLVESGGGLVQPGGSLRLSCAASGFTFSSFGMHWVRQAPGKGLEWVSYISSGSSIIYYADSVKGRFTISRDNAKNSLYLQMNSLRAEDTAVYYCARGGRLVWSPDYWGQGTLVTVSS VL: DIVMTQSPDSLAVSLGERATINCKSSQSLLNSGNQKNYLTWYQQKPGQPPKLLIYWASTRGSGVPDRFTGSGSGTDFTLTISSLQAEDVAVYYCQNDYSYPFTFGSGTKLEIKR	43.9	0.00403	91900

Other lines, results leading:

Kd [nM]	koff [s⁻¹]	kon [M⁻¹ s⁻¹]	Binder
40.6	0.0047	116000	H1_L1.86 (antibody, V domains shown, also called VL-E61S; Kabat 55) VH: EVQLVESGGGLVQPGGSLRLSCAASGFTFSSFGMHWVRQAPGKGLEWVSYISSGSSIIYYADSVKGRFTISRDNAKNSLYLQMNSLRAEDTAVYYCARGGRLVWSPDYWGQGTLVTVSS VL: DIVMTQSPDSLAVSLGERATINCKSSQSLLNSGNQKNYLTWYQQKPGQPPKLLIYWASTRSSGVPDRFTGSGSGTDFTLTISSLQAEDVAVYYCQNDYSYPFTFGSGTKLEIKR
46	0.00478	104000	H1_L1.84 (antibody, V domains shown, also called VL-E61Q; Kabat 55) VH: EVQLVESGGGLVQPGGSLRLSCAASGFTFSSFGMHWVRQAPGKGLEWVSYISSGSSIIYYADSVKGRFTISRDNAKNSLYLQMNSLRAEDTAVYYCARGGRLVWSPDYWGQGTLVTVSS VL: DIVMTQSPDSLAVSLGERATINCKSSQSLLNSGNQKNYLTWYQQKPGQPPKLLIYWASTRQSGVPDRFTGSGSGTDFTLTISSLQAEDVAVYYCQNDYSYPFTFGSGTKLEIKR

target: T1, human PD-1-His; test: Octet

Binder	Kd [nM]	koff [s⁻¹]	kon [M⁻¹ s⁻¹]	binding result
H1.151_L1 (antibody, V domains shown, also called VH-W112F; Kabat 100) VH: EVQLVESGGGLVQPGGSLRLSCAASGFTFSSFGMHWVRQAPGKGLEWVSYISSGSSIIYYADSVKGRFTISRDNAKNSLYLQMNSLRAEDTAVYYCARGGRLVFSPDYWGQGTLVTVSS VL: DIVMTQSPDSLAVSLGERATINCKSSQSLLNSGNQKNYLTWYQQKPGQPPKLLIYWASTRESGVPDRFTGSGSGTDFTLTISSLQAEDVAVYYCQNDYSYPFTFGSGTKLEIKR	309	0.087	282000	
H1.158_L1 (antibody, V domains shown, also called VH-W112E; Kabat 100; copies: 2 + 2) VH: EVQLVESGGGLVQPGGSLRLSCAASGFTFSSFGMHWVRQAPGKGLEWVSYISSGSSIIYYADSVKGRFTISRDNAKNSLYLQMNSLRAEDTAVYYCARGGRLVESPDYWGQGTLVTVSS VL: DIVMTQSPDSLAVSLGERATINCKSSQSLLNSGNQKNYLTWYQQKPGQPPKLLIYWASTRESGVPDRFTGSGSGTDFTLTISSLQAEDVAVYYCQNDYSYPFTFGSGTKLEIKR				no binding
H1.157_L1 (antibody, V domains shown, also called VH-W112S; Kabat 100; copies: 2 + 2) VH: EVQLVESGGGLVQPGGSLRLSCAASGFTFSSFGMHWVRQAPGKGLEWVSYISSGSSIIYYADSVKGRFTISRDNAKNSLYLQMNSLRAEDTAVYYCARGGRLVSSPDYWGQGTLVTVSS VL: DIVMTQSPDSLAVSLGERATINCKSSQSLLNSGNQKNYLTWYQQKPGQPPKLLIYWASTRESGVPDRFTGSGSGTDFTLTISSLQAEDVAVYYCQNDYSYPFTFGSGTKLEIKR				no binding
H1.149_L1 (antibody, V domains shown, also called VH-V111D; Kabat 99) VH: EVQLVESGGGLVQPGGSLRLSCAASGFTFSSFGMHWVRQAPGKGLEWVSYISSGSSIIYYADSVKGRFTISRDNAKNSLYLQMNSLRAEDTAVYYCARGGRLDWSPDYWGQGTLVTVSS VL: DIVMTQSPDSLAVSLGERATINCKSSQSLLNSGNQKNYLTWYQQKPGQPPKLLIYWASTRESGVPDRFTGSGSGTDFTLTISSLQAEDVAVYYCQNDYSYPFTFGSGTKLEIKR	116	0.0116	99700	
H1.161_L1 (antibody, V domains shown, also called VH-S113A; Kabat 100a) VH: EVQLVESGGGLVQPGGSLRLSCAASGFTFSSFGMHWVRQAPGKGLEWVSYISSGSSIIYYADSVKGRFTISRDNAKNSLYLQMNSLRAEDTAVYYCARGGRLVWAPDYWGQGTLVTVSS VL: DIVMTQSPDSLAVSLGERATINCKSSQSLLNSGNQKNYLTWYQQKPGQPPKLLIYWASTRESGVPDRFTGSGSGTDFTLTISSLQAEDVAVYYCQNDYSYPFTFGSGTKLEIKR	47.5	0.00755	159000	
H1.147_L1 (antibody, V domains shown, also called VH-V111Q; Kabat 99) VH: EVQLVESGGGLVQPGGSLRLSCAASGFTFSSFGMHWVRQAPGKGLEWVSYISSGSSIIYYADSVKGRFTISRDNAKNSLYLQMNSLRAEDTAVYYCARGGRLQWSPDYWGQGTLVTVSS VL: DIVMTQSPDSLAVSLGERATINCKSSQSLLNSGNQKNYLTWYQQKPGQPPKLLIYWASTRESGVPDRFTGSGSGTDFTLTISSLQAEDVAVYYCQNDYSYPFTFGSGTKLEIKR	92.3	0.013	140000	
H1.160_L1 (antibody, V domains shown, also called VH-S113T; Kabat 100a) VH: EVQLVESGGGLVQPGGSLRLSCAASGFTFSSFGMHWVRQAPGKGLEWVSYISSGSSIIYYADSVKGRFTISRDNAKNSLYLQMNSLRAEDTAVYYCARGGRLVWTPDYWGQGTLVTVSS VL: DIVMTQSPDSLAVSLGERATINCKSSQSLLNSGNQKNYLTWYQQKPGQPPKLLIYWASTRESGVPDRFTGSGSGTDFTLTISSLQAEDVAVYYCQNDYSYPFTFGSGTKLEIKR	90.7	0.00764	84300	

Now from value to binder:

Kd [nM]	koff [s⁻¹]	kon [M⁻¹ s⁻¹]	binding result	Binder
77.5	0.0112	144000		H1.148_L1 (antibody, V domains shown, also called VH-V111W; Kabat 99) VH: EVQLVESGGGLVQPGGSLRLSCAASGFTFSSFGMHWVRQAPGKGLEWVSYISSGSSIIYYADSVKGRFTISRDNAKNSLYLQMNSLRAEDTAVYYCARGGRLWWSPDYWGQGTLVTVSS VL: DIVMTQSPDSLAVSLGERATINCKSSQSLLNSGNQKNYLTWYQQKPGQPPKLLIYWASTRESGVPDRFTGSGSGTDFTLTISSLQAEDVAVYYCQNDYSYPFTFGSGTKLEIKR
			no binding	H1.153_L1 (antibody, V domains shown, also called VH-W112Y; Kabat 100; copies: 2 + 2) VH: EVQLVESGGGLVQPGGSLRLSCAASGFTFSSFGMHWVRQAPGKGLEWVSYISSGSSIIYYADSVKGRFTISRDNAKNSLYLQMNSLRAEDTAVYYCARGGRLVYSPDYWGQGTLVTVSS VL: DIVMTQSPDSLAVSLGERATINCKSSQSLLNSGNQKNYLTWYQQKPGQPPKLLIYWASTRESGVPDRFTGSGSGTDFTLTISSLQAEDVAVYYCQNDYSYPFTFGSGTKLEIKR
			no binding	H1.155_L1 (antibody, V domains shown, also called VH-W112H; Kabat 100; copies: 2 + 2) VH: EVQLVESGGGLVQPGGSLRLSCAASGFTFSSFGMHWVRQAPGKGLEWVSYISSGSSIIYYADSVKGRFTISRDNAKNSLYLQMNSLRAEDTAVYYCARGGRLVHSPDYWGQGTLVTVSS VL: DIVMTQSPDSLAVSLGERATINCKSSQSLLNSGNQKNYLTWYQQKPGQPPKLLIYWASTRESGVPDRFTGSGSGTDFTLTISSLQAEDVAVYYCQNDYSYPFTFGSGTKLEIKR
			no binding	H1.156_L1 (antibody, V domains shown, also called VH-W112Q; Kabat 100; copies: 2 + 2) VH: EVQLVESGGGLVQPGGSLRLSCAASGFTFSSFGMHWVRQAPGKGLEWVSYISSGSSIIYYADSVKGRFTISRDNAKNSLYLQMNSLRAEDTAVYYCARGGRLVQSPDYWGQGTLVTVSS VL: DIVMTQSPDSLAVSLGERATINCKSSQSLLNSGNQKNYLTWYQQKPGQPPKLLIYWASTRESGVPDRFTGSGSGTDFTLTISSLQAEDVAVYYCQNDYSYPFTFGSGTKLEIKR
60	0.00524	87200		H1.150_L1 (antibody, V domains shown, also called VH-V111K; Kabat 99) VH: EVQLVESGGGLVQPGGSLRLSCAASGFTFSSFGMHWVRQAPGKGLEWVSYISSGSSIIYYADSVKGRFTISRDNAKNSLYLQMNSLRAEDTAVYYCARGGRLKWSPDYWGQGTLVTVSS VL: DIVMTQSPDSLAVSLGERATINCKSSQSLLNSGNQKNYLTWYQQKPGQPPKLLIYWASTRESGVPDRFTGSGSGTDFTLTISSLQAEDVAVYYCQNDYSYPFTFGSGTKLEIKR
